This note sets out measurements from patent US20120322862.

A word on the IC50: it is the concentration that gives 50% inhibition. Lower therefore signals higher potency.

The series deals with 4-1BB (TNFRSF9) extracellular domain (Homo sapiens) (UniProt Q07011). The series can be described thus: competition. To be noted: all dT replaced by TrpdU (5-(N-tryptaminocarboxyamide)-2'-deoxyuridine); all C 5-methyl-dC; inhibition of 4-1BB ligand capture by receptor on Protein A beads (co-IP); PBS/0.02% Tween-20, 37 C.

Turning to “CCTGCACCCAGTGTCCCNGANGGGGNNNNNNAGNNGNANNNNGNAANGGNGGANGNNGANGGAGAGGAGGANGG [1684-40]”, the IC50 came out at 0.81 nM.
